The values below come from patent publication US20120237528A1 (Janssen / Centocor, published 2012).

Positions count from the first letter of the chain named.

First the molecules themselves.
T1: Cynomolgous monkey (cyno) TF-ECD with His Tag (cynomolgus monkey, UniProt P13726 33-251 (human entry))
T1 construct: also called cyno antigen
T1 chain: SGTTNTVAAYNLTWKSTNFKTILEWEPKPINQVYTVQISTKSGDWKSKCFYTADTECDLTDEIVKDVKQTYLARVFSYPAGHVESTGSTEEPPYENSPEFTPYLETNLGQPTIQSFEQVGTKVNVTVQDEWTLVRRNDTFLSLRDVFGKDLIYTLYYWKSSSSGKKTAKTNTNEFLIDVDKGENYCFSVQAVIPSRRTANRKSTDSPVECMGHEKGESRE

B1: M16 (antibody, V domains shown)
VH: QVQLVQSGAEVKKPGASVKVSCKASGYTFITYWIEWVRQAPGQGLEWMGDILPGSGSTNYNENFKGRVTMTRDTSTSTVYMELSSLRSEDTAVYYCARSGYYGNSGFAYWGQGTLVTVSS
VL: DIVMTQSPDSLAVSLGERATINCKSSQSLLSSGNQKNYLTWYQQKPGQPPKLLIYWASTRESGVPDRFSGSGSGTDFTLTISSLQAEDVAVYYCQNDYTYPLTFGQGTKLEIK
notes: complete MAb; FR4 is its own entry; also called H16/L2
B2: M9 (antibody, V domains shown)
VH: EVQLVQSGAEVKKPGESLRISCKGSGYTFITYWIEWVRQMPGKGLEWMGDILPGSGSTNYNENFKGHVTISADKSISTAYLQWSSLKASDTAMYYCARSGYYGNSGFAYWGQGTLVTVSS
VL: B1 VL
notes: complete MAb; FR4 is its own entry; also called H15/L2
B3: M19 (antibody, V domains shown)
VH: B1 VH
VL: DIVMTQTPLSLSVTPGQPASISCKSSQSLLSSGNQKNYLTWYLQKPGQPPQLLIYWASTRESGVPDRFSGSGSGTDFTLKISRVEAEDVGVYYCQNDYTYPLTFGQGTKLEIK
notes: complete MAb; FR4 is its own entry; also called H16/L5
B4: M11 (antibody, V domains shown)
VH: B2 VH
VL: B3 VL with T7S, S12P, Q17E, P49S
notes: complete MAb; FR4 is its own entry; also called H15/L4
B5: M58 (antibody, V domains shown)
VH: B2 VH with N61S, E62P, N63S, K65Q
VL: B1 VL
notes: complete MAb; FR4 is its own entry; also called H22/L2
B6: M60 (antibody, V domains shown)
VH: B2 VH with N61S, E62P, N63S, K65Q
VL: B3 VL with T7S, S12P, Q17E, P49S
notes: complete MAb; FR4 is its own entry; also called H22/L4
B7: M12 (antibody, V domains shown)
VH: B2 VH
VL: B3 VL
notes: complete MAb; FR4 is its own entry; also called H15/L5
B8: M59 (antibody, V domains shown)
VH: B2 VH with N61S, E62P, N63S, K65Q
VL: B3 VL with S12P, Q17E, P49S
notes: FR4 is its own entry; also called H22/L3
B9: M1612 (antibody, V domains shown)
VH: B2 VH with I30N, T31P, S55T, S57Y, N61S, E62P, N63S, K65Q
VL: B3 VL with S12P, Q17E, P49S
notes: complete MAb; FR4 is its own entry; also called H133/L3; TF7M1612
B10: M1611 (antibody, V domains shown)
VH: B2 VH with I30G, T31P, S57Y, N59T, N61S, E62P, N63S, K65Q
VL: B3 VL with S12P, Q17E, P49S
notes: complete MAb; FR4 is its own entry; also called H128/L3
B11: M1584 (antibody, V domains shown)
VH: B2 VH with I30V, S55T, S57Y, N59V, N61S, E62P, N63S, K65Q
VL: B3 VL with S12P, Q17E, P49S
notes: complete MAb; FR4 is its own entry; also called H173/L3
B12: M1607 (antibody, V domains shown)
VH: B2 VH with Y27F, E35A, G54A, G56S, N61S, E62P, N63S, K65Q
VL: B3 VL with S12P, Q17E, P49S
notes: complete MAb; FR4 is its own entry; also called H189/L3; TF7M1607

In one assay the target is T2, recombinant extracellular domain (ECD) of human TF, amino acid 1-219 of the mature chain, C-terminal His6-tag (human, UniProt P13726 33-251).
T2 construct: expressed in a mammalian system; used for ELISA and Biacore; biotinylated by NHS-ester for the Fab ELISA; also called His6-TF-ECD1-219; HumanTF1-219
Description: Biacore. For orientation: SPR reads the build-up and loss of mass on a sensor chip optically.
One may read the Kd as the equilibrium constant for the complex coming apart. Turning to B1, the Kd was 0.66 nM.

In the case of B2, the Kd was 0.61 nM.

On to B3, for which the Kd is 0.41 nM.

Regarding B4, the Kd turned out to be 0.37 nM.

Consider B5, for which the Kd was found to be 0.2 nM.

Take B6: the Kd came out at 0.47 nM.

Consider B7, for which the equilibrium dissociation constant (Kd) is 0.55 nM.

The target in the next assay is T1, Cynomolgous monkey (cyno) TF-ECD with …. Description: Biacore.
Take B1: the equilibrium dissociation constant (Kd) worked out at 1.96 nM.

On to B8, for which the Kd came to 1.28 nM.

For B2, binding was put at a Kd of 1.55 nM.

The molecule B3 yielded a dissociation constant (Kd) of 2.81 nM.

For the molecule B4, the dissociation constant (Kd) is 1.52 nM.

As for B5, the Kd was 1.18 nM.

Consider B6, for which binding was put at a Kd of 1.31 nM.

Take B7: the Kd came to 2.24 nM.

Another assay addresses T2, recombinant extracellular domain (ECD) …. Description: Biacore. The source holds these as a separate data set.
What is called koff is the rate constant with which the complex falls apart. Usually kon stands for the rate constant with which the complex forms. Regarding B1, the Kd was 0.66 nM, the koff worked out at 6.7e-05 s⁻¹ and the kon is 102000 M⁻¹ s⁻¹.

B2: the Kd amounted to 0.61 nM, the koff came out at 5.9e-05 s⁻¹ and the kon turned out to be 97300 M⁻¹ s⁻¹.

As for B3, the Kd amounted to 0.41 nM, the koff was found to be 4.1e-05 s⁻¹ and the kon was 98800 M⁻¹ s⁻¹.

Take B4: the Kd was determined as 0.36 nM.

Take B9: the dissociation constant Kd is 0.38 nM, the koff was determined as 6.3e-05 s⁻¹ and the kon was 165000 M⁻¹ s⁻¹.

On to B10, for which the Kd was 0.31 nM, the koff turned out to be 5.9e-05 s⁻¹ and the kon turned out to be 192000 M⁻¹ s⁻¹.

In the case of B5, the Kd was found to be 0.19 nM, the koff was 1.8e-05 s⁻¹ and the on-rate constant (kon) was 94800 M⁻¹ s⁻¹.

Regarding B11, the Kd is 0.3 nM, the dissociation rate constant (koff) is 5.6e-05 s⁻¹ and the kon was 184000 M⁻¹ s⁻¹.

For B6, the Kd is 0.47 nM.

On to B12, for which the Kd was found to be 0.35 nM, the koff turned out to be 6e-05 s⁻¹ and the on-rate constant (kon) amounted to 170000 M⁻¹ s⁻¹.

B7: the equilibrium dissociation constant (Kd) was 0.55 nM, the koff worked out at 5.1e-05 s⁻¹ and the kon was 92200 M⁻¹ s⁻¹.

In a further assay the target is T3, endogenous human tissue factor on MDA-MB-231 breast cancer cells (human, UniProt P13726 33-295). Kind of assay: cell-based or functional assay.
On to B1, for which the “IL-8 Induction, Ave % inhibition” value worked out at 109%.

Turning to B8, the “IL-8 Induction, Ave % inhibition” value was found to be 103%.

Consider B2, for which the “IL-8 Induction, Ave % inhibition” value was 106%.

On to B3, for which the “IL-8 Induction, Ave % inhibition” value came to 106%.

B4: the “IL-8 Induction, Ave % inhibition” value was 93%.

Regarding B5, the “IL-8 Induction, Ave % inhibition” value stood at 106%.

In the case of B6, the “IL-8 Induction, Ave % inhibition” value was found to be 106%.

B7: the “IL-8 Induction, Ave % inhibition” value came out at 102%.

The target in the next assay is Innovin, lyophilized recombinant human tissue factor combined with phospholipids (human, UniProt P13726 33-295, limits assumed). Description: cell-based or functional assay.
For B1, the “T½ Max (seconds), coagulation of human plasma” value (shortened to “T½ Max (seconds), coagulation”) stood at 198 s.

In the case of B8, the “T½ Max (seconds), coagulation” value is 169 s.

B2: the “T½ Max (seconds), coagulation” value amounted to 198 s.

As for B3, the “T½ Max (seconds), coagulation” value is 199 s.

Take B4: the “T½ Max (seconds), coagulation” value was found to be 195 s.

Regarding B9, the “T½ Max (seconds), coagulation” value is 163 s.

In the case of B10, the “T½ Max (seconds), coagulation” value stood at 154 s.

Regarding B5, the “T½ Max (seconds), coagulation” value came to 192 s.

B11: the “T½ Max (seconds), coagulation” value was found to be 199 s.

B6: the “T½ Max (seconds), coagulation” value stood at 180 s.

Consider B12, for which the “T½ Max (seconds), coagulation” value amounted to 152 s.

Turning to B7, the “T½ Max (seconds), coagulation” value stood at 197 s.

In another assay the target is T3, endogenous human tissue factor on …. Kind of assay: cell-based or functional assay. This is another data set of the same source.
Take B1: the “% IL-8 Inhibition” value was determined as 98.3%.

As to B8, the “% IL-8 Inhibition” value came out at 83.8%.

Turning to B2, the “% IL-8 Inhibition” value came to 103%.

B3: the “% IL-8 Inhibition” value was 87.3%.

On to B4, for which the “% IL-8 Inhibition” value was 87.9%.

Turning to B5, the “% IL-8 Inhibition” value came to 88.5%.

In the case of B6, the “% IL-8 Inhibition” value was 99.6%.

Consider B7, for which the “% IL-8 Inhibition” value was 98.6%.

For the next assay the target is unchanged. Description: cell-based or functional assay. This is another data set of the same source.
Regarding B8, the “IC50 (ug/ml), IL-8 induction assay” value was 0.382 µg/mL.

For B9, the “IC50 (ug/ml), IL-8 induction assay” value amounted to 0.413 µg/mL.

On to B10, for which the “IC50 (ug/ml), IL-8 induction assay” value is 0.398 µg/mL.

As for B11, the “IC50 (ug/ml), IL-8 induction assay” value came out at 0.332 µg/mL.

For the molecule B12, the “IC50 (ug/ml), IL-8 induction assay” value amounted to 0.395 µg/mL.

Another assay shares this target. Kind of assay: FACS on MDA-MB-231 cells. As for the experimental part: This assay is used to detect the direct binding of antibody to endogenouse human TF expressed in breast cancer cells. Prepare four point titrations of the test mAbs in FACS buffer (1% FBS in PBS) in duplicate. Start a titration at 1,000 ng/ml with 1:4 dilutions. […] Unstained cells and secondary antibody, Cy-5 conjugated Goat anti-Human IgG Fc antibody in FACS buffer 1:200, is used as controls and prepared immediately before use.
Using standard tissue culture technique, rinse adherent MDA-MB-231 cells in culture flask with once with PBS (w/o Ca+2/Mg+2). Lift cells with Versene and count the cells and seed 200,000 cells per well in a polystyrene V-bottom plate. FACS Analysis Protocol: Tissue Factor Binding. Pellet the cells in a Allegra X-15R centrifuge at 450×g for 3 minutes at 4° C., resuspend in FACS Buffer (2% FBS in PBS) and plate 200,000 cells per well in 200 uL. Pellet cells at 450×g for 3 minutes at 4° C. Discard supernatants and add 100 uL/well test or control mAbs to designated wells and incubate on ice or at 4° C. for 1 hour (+/−10 minutes). Pellet cells at 450×g for 3 minutes at 4° C. Discard supernatants and wash cells once in FACS buffer. Resuspend cells in 200 uL/well FACS buffer and pellet cells at 450×g for 3 minutes at 4° C. Discard supernatants and add 100 uL/well secondary antibody to designated wells (triterate), and incubate on ice for 1 hour (+/−10 minutes). Pellet cells at 450×g for 3 minutes at 4° C. Discard supernatants and wash cells 2 times in FACS buffer before resuspending the cells in 200 uL/well FACS Buffer (triterate). Pellet cells at 450×g for 3 minutes at 4° C. Discard supernatant and resuspend cells in 100 uL/well CytoFix Buffer. Analyze reactions by flow cytometry (BD FACSArray). The FlowJo Software is used for FACS data analysis by gating the main population of cells in the unstained control well and applying the gate to the whole data set. The data is exported as a table of the geometric mean fluorescence intensity (MFI) in the red channel for the applied gate.
Take B1: the “Whole Cell Binding, Ave %” value stood at 109%.

In the case of B2, the “Whole Cell Binding, Ave %” value amounted to 107%.

Take B3: the “Whole Cell Binding, Ave %” value amounted to 111%.

For B4, the “Whole Cell Binding, Ave %” value was found to be 114%.

With B5, the “Whole Cell Binding, Ave %” value was found to be 94%.

Consider B7, for which the “Whole Cell Binding, Ave %” value is 124%.

For another assay, the target named is T2, recombinant extracellular domain (ECD) …. Kind of assay: TF-ECD binding ELISA, chemiluminescent. On the technique in general: ELISA stands for enzyme-linked immunosorbent assay.
By EC50 is commonly meant the midpoint of the concentration-response curve. Consider B1, for which the EC50 came to 0.00931 µg/mL.

For B8, the EC50 came out at 0.0088 µg/mL.

In the case of B2, the EC50 was 0.0098 µg/mL.

Regarding B3, the EC50 is 0.00922 µg/mL.

As to B4, the EC50 was found to be 0.00994 µg/mL.

As to B5, the EC50 came to 0.00903 µg/mL.

On to B6, for which the EC50 was found to be 0.00835 µg/mL.

On to B7, for which the EC50 is 0.01 µg/mL.

The target in another assay is T1, Cynomolgous monkey (cyno) TF-ECD with …. Description: TF-ECD binding ELISA, chemiluminescent.
Take B1: the EC50 stood at 0.0234 µg/mL.

With B8, it took 0.0187 µg/mL to reach a half-maximal effect (EC50).

B2 returned an EC50 of 0.0199 µg/mL.

Molecule B3 returned an EC50 of 0.0296 µg/mL.

On to B4, for which the EC50 was found to be 0.0187 µg/mL.

B5 had an EC50 of 0.0198 µg/mL.

For B6, the response was half-maximal at 0.0178 µg/mL (EC50).

Molecule B7 returned an EC50 of 0.0228 µg/mL.
